Measurements from PMC4964276 (The Biochemical journal, 2016).

Target: RIIα-D/D(1–44) used for ITC (human, UniProt P13861 1-44)
Experiment: ITC

Chain of RIIα-D/D(1–44) used for ITC (P13861 1-44): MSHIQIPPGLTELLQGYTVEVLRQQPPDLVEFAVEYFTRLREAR

Kd: 0.6 nM
dH: -22550 ± 171
stoichiometry N: 0.98 sites
Binder: NGGEPDDAELVRLSKRLVENAVLKAVQQYLEETQNKNKPGE (domain or fragment, human) [AKAP18β(43–83)]
